The text below walks through data of patent US20100298213A1, “Pharmaceutically Active Insulin Receptor-Modulating Molecules” (Novo Nordisk A/S, priority 2004, published 2010).

Square brackets hold non-standard residues; d marks the D form. Ends that are not written are not given here. Dip = N[C@H](C(=O)O)C(c1ccccc1)c1ccccc1; Orn = NCCC[C@H](N)C(=O)O; Aib = CC(C)(N)C(=O)O A value given as a limit tells only on which side of the number the result lay.

In one test the target is insulin receptor on mouse adipocytes (mouse, UniProt P15208 28-1372). The experiment in a line: cell-based or functional assay.
insulin receptor on mouse adipocytes, sequence (P15208 28-1372): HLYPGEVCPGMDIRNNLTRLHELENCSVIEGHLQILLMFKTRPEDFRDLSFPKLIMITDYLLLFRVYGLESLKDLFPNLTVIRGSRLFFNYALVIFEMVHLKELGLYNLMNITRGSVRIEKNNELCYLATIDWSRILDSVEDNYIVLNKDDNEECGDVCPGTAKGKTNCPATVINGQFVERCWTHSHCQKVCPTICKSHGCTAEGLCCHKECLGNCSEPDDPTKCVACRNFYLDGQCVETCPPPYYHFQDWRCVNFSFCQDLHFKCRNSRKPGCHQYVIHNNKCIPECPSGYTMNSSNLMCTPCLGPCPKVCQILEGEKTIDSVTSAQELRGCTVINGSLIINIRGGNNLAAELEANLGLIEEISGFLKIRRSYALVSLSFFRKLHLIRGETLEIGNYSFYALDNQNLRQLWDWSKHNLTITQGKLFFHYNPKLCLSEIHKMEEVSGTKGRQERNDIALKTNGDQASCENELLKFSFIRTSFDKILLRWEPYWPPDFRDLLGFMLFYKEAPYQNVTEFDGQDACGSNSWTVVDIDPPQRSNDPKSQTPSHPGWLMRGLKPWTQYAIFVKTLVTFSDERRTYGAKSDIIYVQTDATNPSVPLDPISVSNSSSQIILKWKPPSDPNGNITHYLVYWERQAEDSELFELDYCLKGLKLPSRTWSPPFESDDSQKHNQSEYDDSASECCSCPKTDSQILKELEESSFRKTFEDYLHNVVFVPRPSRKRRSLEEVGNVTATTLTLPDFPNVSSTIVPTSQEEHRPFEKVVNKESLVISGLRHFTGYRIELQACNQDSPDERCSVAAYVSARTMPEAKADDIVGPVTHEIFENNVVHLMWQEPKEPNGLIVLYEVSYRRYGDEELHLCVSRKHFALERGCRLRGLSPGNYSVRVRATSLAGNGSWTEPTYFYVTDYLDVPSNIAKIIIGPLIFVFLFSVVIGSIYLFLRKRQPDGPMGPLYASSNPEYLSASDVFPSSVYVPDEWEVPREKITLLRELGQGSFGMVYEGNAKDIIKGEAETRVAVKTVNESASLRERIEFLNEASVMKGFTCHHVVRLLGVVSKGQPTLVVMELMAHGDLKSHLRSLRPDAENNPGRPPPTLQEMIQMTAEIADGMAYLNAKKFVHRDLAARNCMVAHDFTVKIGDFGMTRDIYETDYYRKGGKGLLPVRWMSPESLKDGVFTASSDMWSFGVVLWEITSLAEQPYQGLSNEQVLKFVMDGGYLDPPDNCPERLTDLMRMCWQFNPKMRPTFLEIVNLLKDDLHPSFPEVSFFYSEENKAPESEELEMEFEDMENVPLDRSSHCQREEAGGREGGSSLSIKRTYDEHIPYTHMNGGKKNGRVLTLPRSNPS
Conditions: not given
For the molecule YEEESFYGWFERQLGEE [732], the “EC50 (FFC)” value was over 2000 nM.
Regarding Ac-SLEEEWAQIECEVYGRGCPSEGFYNAIELLS (cysteine pairing not given here) [637], the “EC50 (FFC)” value came to 39 nM and the “EC50 (FFC) rel. to HI” value was 0.1%.
On the same counts, the results for Ac-SLEEEWAQIQCELWGRGCPSESFYDWFERQL (cysteine pairing not given here) [643] are 0.097 nM and 57%.
For the molecule Ac-SLEEEWAQIQCEVWGRGCQRPEPFYDWFERQL (cysteine pairing not given here) [S642], the “EC50 (FFC)” value turned out to be 0.14 nM and the “EC50 (FFC) rel. to HI” value is 39%.
For HLEEEWSEIQCELWGRGCPSEDFYDWFEAQLHA [617] the same measures were 3.9 nM and 1%.
For Ac-SLEEEWAQVECEVYGRGCPSESFYDWFERQL (cysteine pairing not given here) [699] the same measures were 4.3 nM and 1.5%.
On the same counts, the results for Ac-SLEEEWAQIQCEVWGRGCPSESFYDWFEAQLHA (cysteine pairing not given here) [634] are 0.083 nM and 66%.
As for Ac-HLEEEWSEIQCELWGRGCPSEDFYDWFEAQLHA (cysteine pairing not given here) [620], the “EC50 (FFC)” value was 69 nM and the “EC50 (FFC) rel. to HI” value came to 1%.
For Ac-SLEEEWAQIQCEVWGRGCQRPEPFYDWFAEQLDD (cysteine pairing not given here) [655] the same measures were 0.63 nM and 8.7%.
Take SLEEEWAQVECEVYGRCPSESFYDWFERQL [682]: the “EC50 (FFC)” value came to 7.7 nM and the “EC50 (FFC) rel. to HI” value amounted to 0.8%.
For Ac-SLEEEWAQIQCEVWGRGCPSESFYGWFQAQL (cysteine pairing not given here) [668] the same measures were 2.3 nM and 2.8%.
On to Ac-SLEEEWAQIQAEVWGRGAPSESFYDWFERQL [672], for which the “EC50 (FFC)” value came out at 25 nM and the “EC50 (FFC) rel. to HI” value stood at 0.3%.
On the same counts, the results for SLEEEWAQIEAEVWGRGAPPSESFYDWFERQLGY [649] are 14 nM and 0.4%.
For Ac-SLEEEWAQIECEVYGRGCPSESFYHWFERQL (cysteine pairing not given here) [S665] the same measures were 1.9 nM and 3.4%.
Consider Ac-SLEEEWAQIQCEVWGRGCPSGGSTFEDYLHNVVFVPRPS (cysteine pairing not given here) [658], for which the “EC50 (FFC)” value is about 1000 nM.
As to GSLDESFYDWFERQLGKKY [670], the “EC50 (FFC)” value worked out at 850 nM.
For the molecule SLEEHWAQVECEVYGRGCPSESFYDWFERQL [680], the “EC50 (FFC)” value came to 16 nM and the “EC50 (FFC) rel. to HI” value was found to be 0.4%.
On the same counts, the results for SLEEEWAQVECEVYQRGCPSESFYDWFERQL [684] are 15 nM and 0.4%.
On the same counts, the results for SLEEHWHQVECEVYHRHCPSESFYDWFERQL [698] are 190 nM and 0.03%.
On the same counts, the results for SLEEEWAQVECEVYGRFCPSESFYDWFERQL [694] are 26 nM and 0.3%.
For SLEEEWGQVECEVYGRGCPSESFYDWFERQL [681], the “EC50 (FFC)” value was found to be 13 nM and the “EC50 (FFC) rel. to HI” value was 0.4%.
SLEEEWAQVECEVYGRHCPSESFYDWFERQL [692]: the “EC50 (FFC)” value was determined as 7.7 nM and the “EC50 (FFC) rel. to HI” value came out at 0.8%.
On the same counts, the results for SLEEEWAQVECEVYGRVCPSESFYDWFERQL [693] are 75 nM and 0.1%.
On the same counts, the results for SLEEEWYQVECEVYGRGCPSESFYDWFERQL [691] are 25 nM and 0.3%.
For SLEEEWAQVECEVYGRNCPSESFYDWFERQL [683] the same measures were 2.1 nM and 2.9%.
SLEEYWAQVECEVYGRGCPSESFYDWFERQL [689]: the “EC50 (FFC)” value came out at 15 nM and the “EC50 (FFC) rel. to HI” value was 0.4%.
For SLEEHWHQVECEVYGRGCPSESFYDWFERQL [697] the same measures were 72 nM and 0.1%.
On to SLEEVWAQVECEVYGRGCPSESFYDWFERQL [690], for which the “EC50 (FFC)” value came out at 16 nM and the “EC50 (FFC) rel. to HI” value came to 0.4%.
For SLEEEWAQVECEVYHRGCPSESFYDWFERQL [695], the “EC50 (FFC)” value came to 9.8 nM and the “EC50 (FFC) rel. to HI” value was found to be 0.6%.
Turning to SLEEEWAQHECEVYGRGCPSESFYDWFERQL [688], the “EC50 (FFC)” value was determined as 680 nM.
As for Ac-SLEEEWAQIQCEVWGRGCPSEAFYDWFHEQLDD (cysteine pairing not given here) [662], the “EC50 (FFC)” value was 2 nM and the “EC50 (FFC) rel. to HI” value stood at 3.3%.
On the same counts, the results for Ac-HGLEEEWAQIQCEVWGRGCPSESFYDWFEAQLHA (cysteine pairing not given here) [639] are 0.78 nM and 5%.
For HQLEEEWQAIQCELWGRGCPSEDFYDWFEAQLHA [616] the same measures were 1.5 nM and 4%.
As to HELEEEWKRIECELWGRGCPSEDFYDWFEAQLHA [618], the “EC50 (FFC)” value is 4.6 nM and the “EC50 (FFC) rel. to HI” value worked out at 1%.
As to Ac-SLEHEWAQIHCEVYGRGCPSESFYHWFERQL (cysteine pairing not given here) [674], the “EC50 (FFC)” value stood at 230 nM.

The target in the next test is human IR (HIR) (Homo sapiens, UniProt P06213). The experiment in a line: Human IR affinity (Kd). The class given is binding. The following applies: Kd value expressed relative to that of human insulin in the same assay.
human IR (HIR), sequence (P06213 28-758 limits assumed): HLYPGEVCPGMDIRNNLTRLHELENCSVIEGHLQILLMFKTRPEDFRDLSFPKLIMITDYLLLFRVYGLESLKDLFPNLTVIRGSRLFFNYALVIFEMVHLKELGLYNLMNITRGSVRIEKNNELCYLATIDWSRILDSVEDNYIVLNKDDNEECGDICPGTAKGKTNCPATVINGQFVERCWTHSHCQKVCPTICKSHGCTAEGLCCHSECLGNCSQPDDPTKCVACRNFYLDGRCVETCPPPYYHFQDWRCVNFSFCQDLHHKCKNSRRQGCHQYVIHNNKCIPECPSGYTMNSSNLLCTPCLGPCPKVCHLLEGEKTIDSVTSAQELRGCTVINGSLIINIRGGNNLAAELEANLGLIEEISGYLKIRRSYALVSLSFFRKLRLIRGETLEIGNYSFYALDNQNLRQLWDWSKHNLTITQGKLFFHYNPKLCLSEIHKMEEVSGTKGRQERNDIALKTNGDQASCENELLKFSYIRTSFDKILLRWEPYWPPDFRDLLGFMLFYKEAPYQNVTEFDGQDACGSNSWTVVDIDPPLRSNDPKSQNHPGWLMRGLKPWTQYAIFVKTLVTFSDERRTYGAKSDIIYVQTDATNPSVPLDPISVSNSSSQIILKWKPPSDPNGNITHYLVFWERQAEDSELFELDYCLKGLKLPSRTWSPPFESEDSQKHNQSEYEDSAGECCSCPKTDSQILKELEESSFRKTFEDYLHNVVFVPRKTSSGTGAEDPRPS
human IR (HIR), sequence (P06213 763-1382 partner limits assumed): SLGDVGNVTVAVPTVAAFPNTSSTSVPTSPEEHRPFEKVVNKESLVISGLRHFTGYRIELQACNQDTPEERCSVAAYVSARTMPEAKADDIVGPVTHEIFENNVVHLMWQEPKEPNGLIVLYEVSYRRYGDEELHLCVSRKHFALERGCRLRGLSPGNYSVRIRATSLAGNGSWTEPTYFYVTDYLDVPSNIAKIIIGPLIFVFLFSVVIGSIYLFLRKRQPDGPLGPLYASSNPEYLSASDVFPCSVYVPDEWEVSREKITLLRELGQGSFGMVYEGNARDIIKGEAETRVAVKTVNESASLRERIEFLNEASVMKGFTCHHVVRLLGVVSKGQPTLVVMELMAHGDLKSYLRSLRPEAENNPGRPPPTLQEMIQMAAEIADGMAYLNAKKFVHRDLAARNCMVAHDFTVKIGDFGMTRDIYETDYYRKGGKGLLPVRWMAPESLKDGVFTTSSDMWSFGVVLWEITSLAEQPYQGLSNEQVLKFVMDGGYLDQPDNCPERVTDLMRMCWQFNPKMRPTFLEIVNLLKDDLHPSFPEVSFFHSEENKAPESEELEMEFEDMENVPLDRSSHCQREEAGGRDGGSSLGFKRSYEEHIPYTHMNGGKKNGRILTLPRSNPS
With “SLEHEWAQIQCEVWGRGCPSEPFYGWFERQLG [compound 800]”, the “Kd (HIR) rel. to HI” value stood at 07%.
Consider “SLEHEWAQIQCEVWGRGCPSEPFYGWFLAQLG [compound 799]”, for which the “Kd (HIR) rel. to HI” value came out at 4%.
As for “Ac-SLE-Aib-EW-Aib-QIQCEVWGRGC-pox-FYGWFE-Aib-QLG [compound 806]”, the “Kd (HIR) rel. to HI” value came to 3%.
The same measure, in the same setting: the figure for “Ac-SLEEEW[Aib]QIQCEVWGRGCPSESFYDWFERQL (cysteine pairing not given here) [compound 875]” is 12%; for “Ac-SLEEEWAQIQCEVWGRGCPK(ε-carboxyfluorescein)ESFYGWFERQLG [compound 871]” it is 4%; for “Ac-SLEHEW[Aib]QIQCEVWGRPCPSEP[Dip]YGWFHEQLGPP (cysteine pairing not given here) [compound 872]” it is 6%.
For “Ac-SLE-Aib-EW-Aib-QIQCEVWGRPCPSEP-Dip-YGWFHEQLGPP [compound 874]”, the “Kd (HIR) rel. to HI” value came to 8%.
For “Ac-SLEEEWAQIQCEVWG[Orn]GCPSESFYGWFERQLG (cysteine pairing not given here) [compound 805]”, the “Kd (HIR) rel. to HI” value turned out to be 24%.
On the same count and under the same terms, in the case of “Ac-SLEEEWAQIQCEVWGRGC-pox-FYGWFERQLG [compound 802]” it was 6%.
